# Measurements taken from US20220195012A1 (NATIONAL CENTRE FOR CELL SCIENCE, published 2022).
# Residue numbers refer to the chain shown, from its start. Names and notes keep the numbering of the source. Values joined by “and” are separate entries in the source; they are usually repeats but may differ in a detail not shown here. Equal values may be shown once.
# B1: D2M2-4 (DAF-MCP chimera with the DAF D2-D3 linker) (other)
# chain: CEVPTRLNSASLKQPYITQNYFPVGTVVEYECRPGYRREPSLSPKLTCLQNLKWSTAVEFCKKKSCPYIRDPLNGQAVPANGTYEFGYQMHFICNEGYYLIGEEILYCELKGSVAIWSGKPPICEKVLCTPPPKIKNGKHTFSEVEVFEYLDAVTYSCDPAPGPDPFSLIGESTIYCGDNSVWSRAAPECKVVKCRFPVVENGKQISGFGKKFYYKATVMFECDKGFYLDGSDTIVCDSNSTWDPPVPKCLKVL
# B2: D2M2-4 (E136Q) (D2) (other)
# chain: B1 chain with E39Q
# B3: D2M2-4 (I134A) (other)
# chain: B1 chain with I101A
# B4: D2M2-4 (L161K) (other)
# chain: B1 chain with L128K
# B5: D2M2-4 (ML) (DAF-MCP chimera with the MCP M1-M2 linker YRET) (other)
# chain: B1 chain with K62Y, K63R, K64E, S65T
# B6: D2M2-4 (Y101N) (other)
# chain: B1 chain with Y68N
# B7: Human MCP (M1-M4), membrane cofactor protein (other)
# chain: CEEPPTFEAMELIGKPKPYYEIGERVDYKCKKGYFYIPPLATHTICDRNHTWLPVSDDACYRETCPYIRDPLNGQAVPANGTYEFGYQMHFICNEGYYLIGEEILYCELKGSVAIWSGKPPICEKVLCTPPPKIKNGKHTFSEVEVFEYLDAVTYSCDPAPGPDPFSLIGESTIYCGDNSVWSRAAPECKVVKCRFPVVENGKQISGFGKKFYYKATVMFECDKGFYLDGSDTIVCDSNSTWDPPVPKCLKVL
# B8: D2D3M3M4 (Multi-4) (other)
# chain: CEVPTRLNSASLKQPYITQNYFPVGTVVEYECRPGYRREPSLSPKLTCLQNLKWSTAVEFCKKKSCPNPGEIRNGQIDVPGGILFGATISFSCNTGYKLIGKTSSFCLISGSSVQWSDKLPICEKVLCTPPPKIKNGKHTFSEVEVFEYLDAVTYSCDPAPGPDPFSLIGESTIYCGDNSVWSRAAPECKVVKCRFPVVENGKQISGFGKKFYYKATVMFECDKGFYLDGSDTIVCDSNSTWDPPVPKCLKVL
# B9: D2D3M3M4 (DAF-MCP chimera) (other)
# chain: B8 chain with I100F, K102S, K119P, I122E, E124R, K125E, V126I, L127Y
# B10: Human DAF (D1-D4), decay-accelerating factor (other)
# chain: CGLPPDVPNAQPALEGRTSFPEDTVITYKCEESFVKIPGEKDSVICLKGSQWSDIEEFCNRSCEVPTRLNSASLKQPYITQNYFPVGTVVEYECRPGYRREPSLSPKLTCLQNLKWSTAVEFCKKKSCPNPGEIRNGQIDVPGGILFGATISFSCNTGYKLFGSTSSFCLISGSSVQWSDPLPECREIYCPAPPQIDNGIIQGERDHYGYRQSVTYACNKGFTMIGEHSIYCTVNNDEGEWSGPPPECRGKS
# How the values were obtained:
# Assay in all cases: cell-based or functional assay
# AP C3-convertase (C3bBb) [1] = molecular target: T1, AP C3-convertase (C3bBb) (UniProt P01024 23-667; P01024 749-1663; P00751 260-764)
# T1 sequence (P01024 23-667 limits assumed, chain 1 of 3): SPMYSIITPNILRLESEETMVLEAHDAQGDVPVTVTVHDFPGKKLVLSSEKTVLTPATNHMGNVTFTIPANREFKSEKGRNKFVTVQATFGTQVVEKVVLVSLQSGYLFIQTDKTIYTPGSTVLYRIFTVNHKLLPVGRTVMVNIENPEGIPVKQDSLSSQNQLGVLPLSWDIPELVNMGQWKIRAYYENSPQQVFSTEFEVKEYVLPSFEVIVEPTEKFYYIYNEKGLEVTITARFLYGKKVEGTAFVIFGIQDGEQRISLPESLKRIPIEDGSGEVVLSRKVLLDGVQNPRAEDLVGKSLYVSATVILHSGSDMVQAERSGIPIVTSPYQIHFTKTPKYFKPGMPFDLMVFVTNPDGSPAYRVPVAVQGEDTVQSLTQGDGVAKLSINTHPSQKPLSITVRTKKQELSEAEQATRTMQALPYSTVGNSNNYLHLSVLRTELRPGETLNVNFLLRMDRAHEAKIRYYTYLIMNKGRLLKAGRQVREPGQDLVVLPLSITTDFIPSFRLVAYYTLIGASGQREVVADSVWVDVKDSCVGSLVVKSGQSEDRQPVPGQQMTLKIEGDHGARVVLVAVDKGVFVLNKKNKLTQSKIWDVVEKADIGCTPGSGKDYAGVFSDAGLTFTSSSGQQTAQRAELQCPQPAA
# T1 sequence (P01024 749-1663 limits assumed, chain 2 of 3): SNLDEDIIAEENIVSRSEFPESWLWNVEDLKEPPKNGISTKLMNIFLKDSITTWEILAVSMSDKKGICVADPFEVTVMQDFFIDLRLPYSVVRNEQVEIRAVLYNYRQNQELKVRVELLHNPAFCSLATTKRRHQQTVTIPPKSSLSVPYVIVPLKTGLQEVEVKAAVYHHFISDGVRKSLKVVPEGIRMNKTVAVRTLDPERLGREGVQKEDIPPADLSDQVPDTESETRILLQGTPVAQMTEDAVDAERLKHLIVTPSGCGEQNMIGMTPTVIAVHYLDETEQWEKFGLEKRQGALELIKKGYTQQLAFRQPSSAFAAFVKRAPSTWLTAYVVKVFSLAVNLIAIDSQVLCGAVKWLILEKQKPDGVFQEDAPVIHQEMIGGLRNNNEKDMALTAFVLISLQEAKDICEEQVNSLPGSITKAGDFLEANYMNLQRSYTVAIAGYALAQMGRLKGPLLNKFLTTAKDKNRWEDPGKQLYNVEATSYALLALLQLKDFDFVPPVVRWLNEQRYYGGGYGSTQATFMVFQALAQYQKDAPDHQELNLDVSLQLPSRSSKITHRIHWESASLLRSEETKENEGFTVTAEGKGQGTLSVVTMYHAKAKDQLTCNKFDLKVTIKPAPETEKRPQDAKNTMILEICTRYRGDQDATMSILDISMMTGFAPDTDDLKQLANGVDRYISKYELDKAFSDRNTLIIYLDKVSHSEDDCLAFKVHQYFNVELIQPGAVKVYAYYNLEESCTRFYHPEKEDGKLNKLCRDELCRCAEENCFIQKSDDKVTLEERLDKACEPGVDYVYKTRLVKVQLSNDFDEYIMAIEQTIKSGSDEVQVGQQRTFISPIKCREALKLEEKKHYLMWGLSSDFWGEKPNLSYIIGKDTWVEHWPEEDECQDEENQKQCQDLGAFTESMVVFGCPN
# T1 sequence (P00751 260-764 limits assumed, chain 3 of 3): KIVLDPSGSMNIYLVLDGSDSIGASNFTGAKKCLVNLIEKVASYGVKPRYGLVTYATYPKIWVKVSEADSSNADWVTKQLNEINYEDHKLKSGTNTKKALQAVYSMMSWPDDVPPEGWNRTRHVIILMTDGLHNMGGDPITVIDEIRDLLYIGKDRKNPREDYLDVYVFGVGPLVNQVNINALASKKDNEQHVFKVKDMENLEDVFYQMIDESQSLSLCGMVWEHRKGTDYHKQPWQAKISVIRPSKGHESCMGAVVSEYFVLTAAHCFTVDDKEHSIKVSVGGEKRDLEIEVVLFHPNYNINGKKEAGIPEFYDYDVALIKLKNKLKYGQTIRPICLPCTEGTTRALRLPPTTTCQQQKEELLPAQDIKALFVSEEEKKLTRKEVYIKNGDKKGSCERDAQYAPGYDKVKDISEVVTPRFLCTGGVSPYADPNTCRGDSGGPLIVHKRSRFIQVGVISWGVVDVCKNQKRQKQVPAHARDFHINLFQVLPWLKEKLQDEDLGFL
# CP C3-convertase (C4b2a) [2] = molecular target: T2, CP C3-convertase (C4b2a) (UniProt P0C0L4 757-1446; P0C0L4 20-675; P0C0L4 1454-1744; P06681 244-752)
# T2 sequence (P0C0L4 757-1446 limits assumed, chain 1 of 4): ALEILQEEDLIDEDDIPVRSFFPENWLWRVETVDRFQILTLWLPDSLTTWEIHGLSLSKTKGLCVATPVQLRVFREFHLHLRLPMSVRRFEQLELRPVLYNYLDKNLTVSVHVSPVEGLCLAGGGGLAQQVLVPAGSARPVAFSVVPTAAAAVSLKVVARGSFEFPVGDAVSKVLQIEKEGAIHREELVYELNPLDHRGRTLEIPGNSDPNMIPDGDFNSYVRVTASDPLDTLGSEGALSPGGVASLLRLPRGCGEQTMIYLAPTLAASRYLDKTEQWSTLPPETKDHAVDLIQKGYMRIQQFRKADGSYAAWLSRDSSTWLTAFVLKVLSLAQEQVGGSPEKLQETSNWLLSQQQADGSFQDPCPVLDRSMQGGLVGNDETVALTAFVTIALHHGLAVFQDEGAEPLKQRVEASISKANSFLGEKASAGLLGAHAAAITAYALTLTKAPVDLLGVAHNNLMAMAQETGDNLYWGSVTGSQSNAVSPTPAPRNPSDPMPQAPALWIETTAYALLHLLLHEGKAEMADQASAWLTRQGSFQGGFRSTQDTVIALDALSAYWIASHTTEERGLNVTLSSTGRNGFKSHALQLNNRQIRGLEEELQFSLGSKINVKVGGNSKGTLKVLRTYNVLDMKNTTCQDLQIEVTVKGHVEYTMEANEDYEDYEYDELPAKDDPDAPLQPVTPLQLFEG
# T2 sequence (P0C0L4 20-675 limits assumed, chain 2 of 4): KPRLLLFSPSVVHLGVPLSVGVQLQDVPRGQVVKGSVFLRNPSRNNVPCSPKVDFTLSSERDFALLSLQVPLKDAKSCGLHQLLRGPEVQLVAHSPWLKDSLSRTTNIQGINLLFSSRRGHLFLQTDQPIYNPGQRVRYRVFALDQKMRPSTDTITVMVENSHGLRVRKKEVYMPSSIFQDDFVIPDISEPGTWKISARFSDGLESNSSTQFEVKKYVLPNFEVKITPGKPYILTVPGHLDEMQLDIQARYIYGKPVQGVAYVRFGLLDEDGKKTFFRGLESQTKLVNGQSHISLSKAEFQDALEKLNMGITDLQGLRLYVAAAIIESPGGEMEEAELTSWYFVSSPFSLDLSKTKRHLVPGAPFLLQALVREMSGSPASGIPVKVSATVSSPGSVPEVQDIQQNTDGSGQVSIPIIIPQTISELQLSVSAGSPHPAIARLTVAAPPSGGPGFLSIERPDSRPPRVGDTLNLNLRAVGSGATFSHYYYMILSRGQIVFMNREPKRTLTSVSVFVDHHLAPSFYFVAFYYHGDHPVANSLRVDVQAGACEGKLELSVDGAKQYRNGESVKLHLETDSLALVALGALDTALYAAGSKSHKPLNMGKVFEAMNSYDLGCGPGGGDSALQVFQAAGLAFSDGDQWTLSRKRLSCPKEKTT
# T2 sequence (P0C0L4 1454-1744 limits assumed, chain 3 of 4): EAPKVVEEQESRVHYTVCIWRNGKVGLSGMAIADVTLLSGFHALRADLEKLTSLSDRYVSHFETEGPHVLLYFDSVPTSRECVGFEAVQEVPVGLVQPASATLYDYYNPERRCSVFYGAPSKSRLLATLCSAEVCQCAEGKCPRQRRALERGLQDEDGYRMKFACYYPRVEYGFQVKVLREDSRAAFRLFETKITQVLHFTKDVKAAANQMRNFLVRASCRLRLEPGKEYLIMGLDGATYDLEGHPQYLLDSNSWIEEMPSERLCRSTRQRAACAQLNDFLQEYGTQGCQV
# T2 sequence (P06681 244-752 limits assumed, chain 4 of 4): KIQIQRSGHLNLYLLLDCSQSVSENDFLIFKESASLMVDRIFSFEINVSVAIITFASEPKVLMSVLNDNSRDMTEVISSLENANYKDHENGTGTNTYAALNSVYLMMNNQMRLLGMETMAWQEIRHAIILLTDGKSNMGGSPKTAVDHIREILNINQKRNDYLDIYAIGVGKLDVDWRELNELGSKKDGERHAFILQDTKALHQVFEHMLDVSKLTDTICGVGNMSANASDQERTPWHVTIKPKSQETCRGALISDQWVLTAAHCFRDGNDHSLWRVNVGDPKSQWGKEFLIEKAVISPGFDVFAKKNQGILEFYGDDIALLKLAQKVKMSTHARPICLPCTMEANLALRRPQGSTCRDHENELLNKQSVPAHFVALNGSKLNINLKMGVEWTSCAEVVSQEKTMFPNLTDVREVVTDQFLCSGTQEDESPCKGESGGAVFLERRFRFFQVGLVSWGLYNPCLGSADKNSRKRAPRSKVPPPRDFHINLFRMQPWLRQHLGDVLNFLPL
# AP C3-convertase (C3bBb) [3] = molecular target: T1, AP C3-convertase (C3bBb); remark: listed apart in the source
# CP C3-convertase (C4b2a) [4] = molecular target: T2, CP C3-convertase (C4b2a); remark: listed apart in the source
# C4b = C4b (UniProt P0C0L4 757-1446; P0C0L4 20-675; P0C0L4 1454-1744, in the SPR assays biotinylated at the free -SH group with EZ-Link PEO-maleimide-activated biotin)
# Chain of C4b (P0C0L4 757-1446 limits assumed, chain 1 of 3): as the sequence (P0C0L4 757-1446 limits assumed, chain 1 of 4) above
# Chain of C4b (P0C0L4 20-675 limits assumed, chain 2 of 3): as the sequence (P0C0L4 20-675 limits assumed, chain 2 of 4) above
# Chain of C4b (P0C0L4 1454-1744 limits assumed, chain 3 of 3): as the sequence (P0C0L4 1454-1744 limits assumed, chain 3 of 4) above
# C3b = C3b (UniProt P01024 23-667; P01024 749-1663, in the SPR assays biotinylated at the free -SH group with EZ-Link PEO-maleimide-activated biotin)
# Chain of C3b (P01024 23-667 limits assumed, chain 1 of 2): as the sequence (P01024 23-667 limits assumed, chain 1 of 3) above
# Chain of C3b (P01024 749-1663 limits assumed, chain 2 of 2): as the sequence (P01024 749-1663 limits assumed, chain 2 of 3) above
AP-DAA IC50 (AP C3-convertase (C3bBb) [1]),Relative AP-DAA (AP C3-convertase (C3bBb) [1]),CP-DAA IC50 (CP C3-convertase (C4b2a) [2]) [µM],Relative CP-DAA (CP C3-convertase (C4b2a) [2]),other results,Binder
> 19 nM,< 0.1,457,0.03,–,B1
–,–,–,–,"AP-DAA, fold increase compared to D2M2-4 (AP C3-convertase (C3bBb) [3]): 5.6 fold",B2
–,–,–,–,"AP-DAA, fold gain compared to D2M2-4 (AP C3-convertase (C3bBb) [3]): 6.7 fold; CP-DAA, fold increase (CP C3-convertase (C4b2a) [4]): ~2 fold",B3
–,–,–,–,"AP-DAA, fold gain compared to D2M2-4 (AP C3-convertase (C3bBb) [3]): 3.4 fold; CP-DAA, fold increase (CP C3-convertase (C4b2a) [4]): ~2 fold",B4
> 10 nM,< 0.1,> 1000,< 0.01,–,B5
–,–,–,–,"AP-DAA, fold increase compared to D2M2-4 (AP C3-convertase (C3bBb) [3]): 7.2 fold",B6
–,–,–,–,Relative C4b CFA (C4b): 1; Relative C3b CFA (C3b): 1,B7
> 10 nM,< 0.3,39.3,0.4,C4b CFA: Time (min.) for 50% cleavage of C4B α′-chain (C4b): 5.5 min; Relative C4b CFA (C4b): 1.7; C3b CFA: Time (min.) for 50% cleavage of C3B α′-chain (C3b): 17.5 min; Relative C3b CFA (C3b): 0.25,B8
2.4 nM and 2.1 nM,–,–,–,–,B9
3.1 nM and 2.3 nM and 1.1 nM,–,–,1,–,B10
